From the supplement of paper PMC7125110
± gives the standard error. For part of these data: This sample holds only a part of the variants without activity.

B1: glmS ribozyme (parent)
chain: AUAAAAGCGCCAGAACUACAGAAAUGUAGUUGACGAGGAGGAGGUUUAUCGAAUUUUCGGCGGAUGCCUCCAAA

Assays:
Conditions in all cases: with glucosamine-6-phosphate
[1] = variants of: B1; assay: kcat; higher = faster cleavage; RNA array
Summary of the method: (§1)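 kobs was derived by fitting per-tile medians to one- or two-exponential decays after normalising signals to baseline and to non-cleaving reference variants. Those signals came from barcoded ribozyme variants transcribed in situ by E. coli RNA polymerase on sequenced MiSeq chips, followed through a hybridised Cy3 probe at 37 °C and imaged over ~14 h. Glucosamine-6-phosphate (40 μM to 10 mM) in HEPES/KCl/Mg(OAc)2 buffer was flowed in. Weighted Michaelis–Menten fits across concentrations then gave kcat and KM.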

[2] = variants of: B1; assay: KM; higher = weaker cofactor use; RNA array
Summary of the method: as §1

[3] = variants of: B1; assay: self-cleavage kobs at 160 uM GlcN6P; higher = faster cleavage; RNA array
Summary of the method: as §1

[4] = variants of: B1; assay: self-cleavage kobs at 640 uM GlcN6P; higher = faster cleavage; RNA array
Summary of the method: as §1

[5] = variants of: B1; assay: self-cleavage kobs at 2500 uM GlcN6P; higher = faster cleavage; RNA array
Summary of the method: as §1

[6] = variants of: B1; assay: self-cleavage kobs at 10000 uM GlcN6P; higher = faster cleavage; RNA array
Summary of the method: as §1

[7] = variants of: B1; assay: self-cleavage kobs at 40 uM GlcN6P; higher = faster cleavage; RNA array
Summary of the method: as §1

Variant | kcat [1] | KM [2] | self-cleavage kobs at 160 uM GlcN6P [3] | self-cleavage kobs at 640 uM GlcN6P [4] | self-cleavage kobs at 2500 uM GlcN6P [5] | self-cleavage kobs at 10000 uM GlcN6P [6] | self-cleavage kobs at 40 uM GlcN6P [7]
U31C U56C | 0.00169 ± 0.00055 s⁻¹ | 2910 ± 1200 µM | 9.03e-05 ± 1.1e-05 s⁻¹ | 0.000331 ± 5.8e-05 s⁻¹ | 0.000644 ± 0.00011 s⁻¹ | 0.00171 ± 0.00034 s⁻¹ | –
A14C G29U G37U G38A C70A | 5.57e-05 ± 2e-05 s⁻¹ | – | – | – | 6.04e-05 ± 2.4e-05 s⁻¹ | – | –
G7U C70G | 0.000479 ± 0.00015 s⁻¹ | – | 0.000844 ± 0.0002 s⁻¹ | 0.0004 ± 0.00014 s⁻¹ | – | – | 0.000382 ± 0.00012 s⁻¹
C58G G66A | 5.59e-05 ± 5.7e-06 s⁻¹ | – | – | – | 5.32e-05 ± 1.5e-05 s⁻¹ | 5.1e-05 ± 7.9e-06 s⁻¹ | –
C11A U69A | 4.95e-05 ± 1.6e-05 s⁻¹ | – | – | 6.89e-05 ± 2.4e-05 s⁻¹ | 7.69e-05 ± 2.5e-05 s⁻¹ | – | –
G43A U46A | 1.87e-05 ± 2.1e-06 s⁻¹ | – | – | – | – | – | < 1e-05 s⁻¹
A52G U69A | 5.52e-05 ± 3e-06 s⁻¹ | – | – | – | 5.1e-05 ± 1.7e-05 s⁻¹ | 5.51e-05 ± 8.5e-06 s⁻¹ | –
A53G U65A C67A | 0.000109 ± 1.9e-05 s⁻¹ | – | 8.41e-05 ± 2.3e-05 s⁻¹ | 0.000153 ± 3.7e-05 s⁻¹ | 0.000112 ± 2.9e-05 s⁻¹ | 9.28e-05 ± 2.4e-05 s⁻¹ | –
unchanged | 0.0712 ± 0.0079 s⁻¹ | 1990 ± 250 µM | 0.00462 ± 0.00025 s⁻¹ | 0.016 ± 0.00046 s⁻¹ | 0.0364 ± 0.0015 s⁻¹ | 0.0644 ± 0.0021 s⁻¹ | 0.00143 ± 1.7e-05 s⁻¹
U47A U54A U65C | 0.00046 ± 0.0001 s⁻¹ | 1750 ± 700 µM | – | 0.000114 ± 2.7e-05 s⁻¹ | 0.000387 ± 0.0001 s⁻¹ | 0.000358 ± 8.9e-05 s⁻¹ | –
U31G G40C | 0.00108 ± 0.00013 s⁻¹ | 1280 ± 250 µM | 0.000124 ± 2e-05 s⁻¹ | 0.000397 ± 5.8e-05 s⁻¹ | 0.000864 ± 0.00017 s⁻¹ | 0.0009 ± 0.00012 s⁻¹ | 2.49e-05 ± 8e-06 s⁻¹
A12G G29U | 0.000345 ± 2.6e-05 s⁻¹ | 3740 ± 440 µM | – | 5.19e-05 ± 7.9e-06 s⁻¹ | 0.000134 ± 1.9e-05 s⁻¹ | 0.000255 ± 4.1e-05 s⁻¹ | –
U31A U47C | 0.0025 ± 0.0005 s⁻¹ | 3290 ± 980 µM | 9.34e-05 ± 2.4e-05 s⁻¹ | 0.000511 ± 0.00012 s⁻¹ | 0.00117 ± 0.00017 s⁻¹ | 0.00174 ± 0.00034 s⁻¹ | 3.34e-05 ± 1.3e-05 s⁻¹
C16U G40U | 0.00189 ± 0.00089 s⁻¹ | – | 0.000209 ± 5e-05 s⁻¹ | 0.00095 ± 0.00016 s⁻¹ | 0.00106 ± 0.00024 s⁻¹ | 0.00317 ± 0.0006 s⁻¹ | 0.000134 ± 2e-05 s⁻¹
C16U C67G C68U | 6.15e-05 ± 1.2e-05 s⁻¹ | – | – | 7.27e-05 ± 2.2e-05 s⁻¹ | 6.31e-05 ± 2.8e-05 s⁻¹ | 5.02e-05 ± 1.9e-05 s⁻¹ | –
A12U A48U C70A | 5.26e-05 ± 1.7e-05 s⁻¹ | – | – | – | 6.36e-05 ± 2e-05 s⁻¹ | 4.16e-05 ± 1.5e-05 s⁻¹ | –
G32U C71A | 0.000322 ± 6.6e-05 s⁻¹ | 4080 ± 1900 µM | – | 3.16e-05 ± 1.1e-05 s⁻¹ | 0.000161 ± 2.6e-05 s⁻¹ | 0.000222 ± 2.3e-05 s⁻¹ | –

Variant | kcat [1] | KM [2] | self-cleavage kobs at 160 uM GlcN6P [3] | self-cleavage kobs at 640 uM GlcN6P [4] | self-cleavage kobs at 2500 uM GlcN6P [5] | self-cleavage kobs at 10000 uM GlcN6P [6] | self-cleavage kobs at 40 uM GlcN6P [7]
A52U C68A | 2.14e-05 ± 8.2e-06 s⁻¹ | – | – | – | – | – | –
C16U G44U | 0.000229 ± 2.9e-05 s⁻¹ | 1160 ± 450 µM | – | 7.8e-05 ± 1.7e-05 s⁻¹ | 0.000216 ± 4.3e-05 s⁻¹ | 0.000197 ± 2.3e-05 s⁻¹ | –
A6G C16U | 0.000459 ± 3.2e-05 s⁻¹ | 3450 ± 450 µM | 2.44e-05 ± 1.1e-05 s⁻¹ | 6.74e-05 ± 1e-05 s⁻¹ | 0.000208 ± 2.7e-05 s⁻¹ | 0.000336 ± 3.2e-05 s⁻¹ | –
A48C | 0.000456 ± 3.9e-05 s⁻¹ | 2180 ± 390 µM | 2.69e-05 ± 2.4e-06 s⁻¹ | 9.91e-05 ± 2.7e-06 s⁻¹ | 0.000279 ± 6.6e-06 s⁻¹ | 0.000362 ± 6.6e-06 s⁻¹ | –
C58G A64G | 0.000129 ± 2.7e-05 s⁻¹ | – | – | 6.72e-05 ± 2.7e-05 s⁻¹ | 6.74e-05 ± 1.2e-05 s⁻¹ | 0.000115 ± 1.7e-05 s⁻¹ | –
U57G C67A | 2.87e-05 ± 6.3e-06 s⁻¹ | – | – | – | – | 2.45e-05 ± 1.2e-05 s⁻¹ | –
C10A U46G C50U C68U | 3.67e-05 ± 1.3e-05 s⁻¹ | – | – | – | – | – | –
U30G U55C | 0.00519 ± 0.00037 s⁻¹ | 883 ± 120 µM | – | 0.00192 ± 0.00068 s⁻¹ | 0.00363 ± 0.00086 s⁻¹ | 0.00502 ± 0.00092 s⁻¹ | 0.000236 ± 5e-05 s⁻¹
A64C U69G | 1.56e-05 ± 5e-06 s⁻¹ | – | – | – | – | – | < 1e-05 s⁻¹
U57C C71G | 1.18e-05 ± 1.2e-06 s⁻¹ | – | – | – | – | – | < 1e-05 s⁻¹
U46G A64G | 0.0154 ± 0.0048 s⁻¹ | 4300 ± 1900 µM | – | 0.00216 ± 0.00079 s⁻¹ | 0.00387 ± 0.001 s⁻¹ | 0.0119 ± 0.0016 s⁻¹ | 0.000157 ± 2.3e-05 s⁻¹
A42U U54C | 0.00019 ± 4.1e-05 s⁻¹ | – | – | 6.5e-05 ± 1.1e-05 s⁻¹ | 0.00024 ± 3.8e-05 s⁻¹ | 0.000159 ± 1.7e-05 s⁻¹ | –
U47C C68A | 3.98e-05 ± 6.2e-06 s⁻¹ | – | – | – | 4.92e-05 ± 1.8e-05 s⁻¹ | 3.44e-05 ± 1.2e-05 s⁻¹ | –
U47C C68U | 0.00114 ± 0.0002 s⁻¹ | 1650 ± 540 µM | 0.000149 ± 3.6e-05 s⁻¹ | 0.000286 ± 4.6e-05 s⁻¹ | 0.000609 ± 0.0001 s⁻¹ | 0.00107 ± 0.00015 s⁻¹ | 3.33e-05 ± 1.2e-05 s⁻¹
A64U C70U | 0.00015 ± 1.9e-05 s⁻¹ | 1510 ± 510 µM | – | 5.13e-05 ± 5.8e-06 s⁻¹ | 7.86e-05 ± 8.2e-06 s⁻¹ | 0.000139 ± 9.8e-06 s⁻¹ | –
G13U U47A | 0.00106 ± 0.00021 s⁻¹ | 4310 ± 1300 µM | 3.53e-05 ± 1.3e-05 s⁻¹ | 0.000144 ± 1.5e-05 s⁻¹ | 0.000332 ± 5e-05 s⁻¹ | 0.000776 ± 8.7e-05 s⁻¹ | 2.95e-05 ± 1.5e-05 s⁻¹
